This is an account of results in paper PMC10874396, “Spatiotemporal and direct capturing global substrates of lysine-modifying enzymes in living cells” (Nature Communications, 2024).

For the assay, the target named is T1, PatZ-L813o-NBAK (E. coli, UniProt P76594 1-886, L813o-NBAK, o-NBAK (o-nitrobenzyl alcohol-derived lysine, unnatural amino acid photo-crosslinker) at 813).
T1 construct: PatZ, protein lysine acetyltransferase of E. coli, amber codon at L813 read as o-NBAK; o-NBAK is a lysine derivative; also called PatZ-L813o-NBAK mutant; o-NBAK encoded enzyme; source: E. coli BL21(DE3), in living cells; also purified (Ni-NTA) for in vitro crosslinking
T1 sequence (looked up): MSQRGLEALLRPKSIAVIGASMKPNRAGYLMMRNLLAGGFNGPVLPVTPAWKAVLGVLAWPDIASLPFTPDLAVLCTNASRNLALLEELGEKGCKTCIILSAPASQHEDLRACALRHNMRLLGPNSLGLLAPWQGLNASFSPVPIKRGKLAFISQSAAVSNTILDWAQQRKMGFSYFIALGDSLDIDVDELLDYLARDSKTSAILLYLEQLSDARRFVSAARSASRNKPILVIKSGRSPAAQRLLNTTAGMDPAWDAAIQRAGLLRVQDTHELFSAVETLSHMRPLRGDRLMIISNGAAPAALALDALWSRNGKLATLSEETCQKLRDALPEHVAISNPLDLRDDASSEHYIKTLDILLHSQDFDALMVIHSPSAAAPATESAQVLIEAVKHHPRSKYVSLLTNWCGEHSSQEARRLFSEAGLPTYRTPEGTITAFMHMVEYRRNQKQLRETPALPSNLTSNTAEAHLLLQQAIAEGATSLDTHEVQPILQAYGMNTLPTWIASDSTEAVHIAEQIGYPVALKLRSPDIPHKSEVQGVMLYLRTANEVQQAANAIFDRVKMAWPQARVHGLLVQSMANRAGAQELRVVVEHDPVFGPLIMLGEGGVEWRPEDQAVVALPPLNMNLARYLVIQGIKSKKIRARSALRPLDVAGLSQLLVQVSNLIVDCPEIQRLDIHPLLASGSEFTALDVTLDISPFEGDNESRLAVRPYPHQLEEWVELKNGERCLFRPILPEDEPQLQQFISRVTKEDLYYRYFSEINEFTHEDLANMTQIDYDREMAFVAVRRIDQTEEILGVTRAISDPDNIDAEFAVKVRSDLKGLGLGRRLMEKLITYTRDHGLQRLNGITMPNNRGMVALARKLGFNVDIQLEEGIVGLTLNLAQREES
As to the kind of experiment: cross-linking; in vitro: purified o-NBAK enzyme mixed with purified partner protein in PBS 150 mM NaCl pH 7.5, 365 nm UV 15 min on ice, SDS-PAGE, extra band cut, LC-MS/MS of crosslinked peptides. The following applies: both partners purified.

B1: DnaJ (purified recombinant) (natural protein, E. coli, UniProt P08622 1-376, looked up)
chain: MAKQDYYEILGVSKTAEEREIRKAYKRLAMKYHPDRNQGDKEAEAKFKEIKEAYEVLTDSQKRAAYDQYGHAAFEQGGMGGGGFGGGADFSDIFGDVFGDIFGGGRGRQRAARGADLRYNMELTLEEAVRGVTKEIRIPTLEECDVCHGSGAKPGTQPQTCPTCHGSGQVQMRQGFFAVQQTCPHCQGRGTLIKDPCNKCHGHGRVERSKTLSVKIPAGVDTGDRIRLAGEGEAGEHGAPAGDLYVQVQVKQHPIFEREGNNLYCEVPINFAMAALGGEIEVPTLDGRVKLKVPGETQTGKLFRMRGKGVKSVRGGAQGDLLCRVVVETPVGLNERQKQLLQELQESFGGPTGEHNSPRSKSFFDGVKKFFDDLTR
notes: DnaJ, E. coli; may be in the Supplementary Information
For B1, the binding result was “binds”.
